From PMC11210195

Key:
mAb1 YTE (human) = test: SPR; antibody Fc variants captured via CaptureSelect Human Fab-kappa ligand on a C1 chip (approx. 60 RU); PRYSPRY injected, five concentrations, two-fold series; 25°C, HBS-EP+ pH 7.4; 1:1 Langmuir fit
mAb1 HH (human) = test: as above
mAb1 WT-AAA (human) = test: as above
[1] = target: mAb1 HH-AAA (asymmetrical human IgG1, one Fc heavy chain HH, the other AAA) (human); test: SPR; Biacore T200, C1 chip, 25 °C, HBS-EP+ (10 mM HEPES, 150 mM NaCl, 3 mM EDTA, 0.05% P20, pH 7.4); antibody Fc variants captured via anti-human Fab-kappa nanobody (about 60 RU), Fc only variants amine-coupled (60-80 RU), cytokine-Fc fusions captured via anti-PGLALA F(ab')2 (35-40 RU); PRYSPRY domain injected in five two-fold dilutions from 500, 1000 or 2000 nM; global fit, Langmuir 1:1, affinity mode
[2] = target: mAb2 WT-AAA (asymmetrical human IgG1, one Fc heavy chain H310A, H433A, Y436A) (human); test: as above

Chain of TRIM21 PRYSPRY domain (P19474 277-475): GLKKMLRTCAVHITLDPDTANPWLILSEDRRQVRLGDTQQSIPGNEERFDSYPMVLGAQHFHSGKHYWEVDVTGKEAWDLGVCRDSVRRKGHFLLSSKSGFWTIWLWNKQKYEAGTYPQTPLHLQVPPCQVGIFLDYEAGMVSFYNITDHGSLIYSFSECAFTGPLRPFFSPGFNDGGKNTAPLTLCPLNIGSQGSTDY

fold decrease of affinity against mAb1 Fc WT (mAb1 YTE (human)): 1.7 fold
fold faster off rate against WT (mAb1 YTE (human)): 1.6 fold
fold decrease of affinity against mAb1 Fc WT (mAb1 HH (human)): 2.4 fold
fold faster off rate against WT (mAb1 HH (human)): 5 fold
fold faster on rate against WT (mAb1 HH (human)): 2 fold
Kd (mAb1 WT-AAA (human)): 40 nM
stoichiometry N (mAb1 WT-AAA (human)): 1
Kd [1]: 120 nM
koff [1]: 0.434 s⁻¹
kon [1]: 3.63e+06 M⁻¹ s⁻¹
Kd [2]: 38.5 nM
koff [2]: 0.0901 s⁻¹
kon [2]: 2.34e+06 M⁻¹ s⁻¹
Substance: TRIM21 PRYSPRY domain (from UniProt P19474-1 277-475) (domain or fragment)
